We go through seven molecules from publication PMC4995489, “Staphylokinase has distinct modes of interaction with antimicrobial peptides, modulating its plasminogen-activation properties” (Scientific Reports, 2016).

A word on the Kd: it is the free concentration of one partner at which half of the binding sites on the other are occupied at equilibrium, for simple one-to-one binding. Broadly, the stoichiometry N is a count of units in the complex or per binding partner.

Changes are numbered by the printed parent chain. Entries after “also recorded” stand apart in the source; their conditions may differ. Bridges are numbered along the chain shown (N, C = ends). Where no end group is shown, it is not given here.

The target in test [1] is T1, staphylokinase (Sak, full-length, sakSTAR sequence, C-terminal His6-tag) (Staphylococcus aureus, UniProt Q99SU7).
T1 construct: Staphylokinase contains 136 amino acids and has a molecular weight of 15.5 kDa; made in house; host or cells: E. coli BL21 (DE3), pET29b, synthetic gene from GeneArt
T1 sequence (Q99SU7 28-163): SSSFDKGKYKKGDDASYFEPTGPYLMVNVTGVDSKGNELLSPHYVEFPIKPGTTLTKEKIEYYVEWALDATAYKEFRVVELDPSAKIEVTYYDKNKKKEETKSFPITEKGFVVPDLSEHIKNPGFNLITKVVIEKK
The test is described as follows: ITC of antimicrobial peptide binding to full-length staphylokinase. The conditions noted are these: 25 °C, 200–400 μM peptide titrated into 8 μM Sak, 20 mM HEPES pH 7.4, One Set of Sites model, at least two experiments. On the procedure: (§1) Most peptides were purchased from Genscript (Piscataway, NJ) as custom-synthesized peptides synthesized using standard 9-fluorenylmethyoxycarbonyl (Fmoc) chemistry and they were purified by HPLC to >95% purity. […] The concentrations for most of the peptides were determined by UV absorption at 280 nm using molar extinction coefficients determined by ProtParam[54].
(§2) A synthetic gene for staphylokinase with optimized codons for expression in Escherichia coli was purchased from GeneArt (Life Technologies). Staphylokinase genes have been cloned and sequenced from different origins: the bacteriophages sakφC and sak42D, and the genomic DNA of a lysogenic S. aureus strain (sakSTAR)[56]. These indicate amino acid sequence differences at three positions in the coding sequences. In this study, we have worked with the sakSTAR protein sequence as it is the most commonly used variant. The gene was subcloned into a pET29b (Novagen), giving the expressed protein a C-terminal His6-tag when expressed in E. coli BL21 (DE3) cells.
(§3) All ITC runs were performed at 25 °C on a MicroCal VP-ITC microcalorimeter (Malvern, Westborough, MA). 200–400 μM peptide was titrated into 8 μM SakΔN10 or Sak in 20 mM HEPES, pH 7.4. […] Data analysis was performed using the MicroCal Origin software using the “One Set of Sites” binding model. At least two experiments were performed for each titration. Statistical analysis was performed to confirm the statistical validity of the differences in the KD values determined for LfcinB and Tritrp binding to SakΔN10 or Sak. p-values were calculated from Student’s t-tests at the 95% confidence level with a one-tailed hypothesis.

The target of test [2] is T2, SakΔN10 (staphylokinase with its first ten residues deleted, C-terminal His6-tag) (Staphylococcus aureus, UniProt Q99SU7).
T2 construct: Staphylokinase contains 136 amino acids and has a molecular weight of 15.5 kDa; made in house; host or cells: E. coli BL21 (DE3), pET29b
T2 sequence (Q99SU7 38-163): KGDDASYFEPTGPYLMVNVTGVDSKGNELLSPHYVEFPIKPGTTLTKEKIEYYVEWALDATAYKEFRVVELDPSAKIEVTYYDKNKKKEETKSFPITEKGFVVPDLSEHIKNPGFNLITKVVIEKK
Briefly: ITC of antimicrobial peptide binding to SakΔN10. As to conditions: 25 °C; for Kd / KD: 200–400 μM peptide titrated into 8 μM SakΔN10, 20 mM HEPES pH 7.4, One Set of Sites model, at least two experiments. The protocol:
as §1, §2, §3

Test [3] concerns Sak-dependent plasminogen activation. The conditions noted are these: mCRAMP expression upregulated during staphylococcal pneumonia, intranasal infection mouse model; cited from earlier work. An excerpt:
In the present study, our aim was to evaluate staphylokinase as a more general interacting partner for antimicrobial peptides of different structures and origin. […] It is possible that additional factors may be involved in promoting its binding in vivo.

The target in test [4] is T3, Staphylokinase (full-length Sak, sakSTAR sequence) (Staphylococcus aureus, UniProt P68802 28-163).
T3 construct: also called wtSak; full Sak; not shown: His6, C-terminal, kept
T3 sequence: T1 sequence (Q99SU7 28-163) with S34G
The test is described as follows: ITC + NMR titration; ITC of mCRAMP into full-length Sak repeated at 37 °C, together with the NMR titration data; not shown. The conditions noted are these: both partners purified.

The target of test [5] is T4, SakΔN10 (staphylokinase with its first ten residues deleted) (Staphylococcus aureus, UniProt P68802 38-163).
T4 construct: not shown: His6, C-terminal, kept
T4 sequence: T2 sequence (Q99SU7 38-163) with S24G
The test is described as follows: ITC; 200-400 μM peptide titrated into 8 μM Sak or SakΔN10 in the cell; 25 °C; 20 mM HEPES, pH 7.4, no salt; One Set of Sites model; at least two experiments each. As to conditions: both partners purified.

The target in test [6] is T4, SakΔN10 (staphylokinase with its first …). The description is as above. As to conditions: both partners purified. This is another data set of the same source.
In test [7] the target is T3, Staphylokinase (full-length Sak, …). The test is described as above. The conditions noted are these: both partners purified.
Test [8] has the same target. The description is as above. The conditions noted are these: both partners purified. This is another data set of the same source.

With `CC[C@H](C)[C@@H]1NC(=O)[C@H](CO)NC(=O)[C@@H]2CCCN2C(=O)[C@H](C)NC(=O)CNC(=O)[C@H](CC(C)C)NC(=O)[C@H](CCCCN)NC(=O)[C@H](CCCCN)NC(=O)[C@H](CCSC)NC(=O)[C@H](CCCNC(=N)N)NC(=O)[C@H](Cc2c[nH]c3ccccc23)NC(=O)[C@H](CCC(N)=O)NC(=O)[C@H](Cc2c[nH]c3ccccc23)NC(=O)[C@H](CCCNC(=N)N)NC(=O)[C@H](CCCNC(=N)N)NC(=O)[C@@H](NC(=O)[C@H](CCCCN)NC(=O)[C@@H](N)Cc2ccccc2)CSSC[C@@H](C(=O)N[C@H](C(=O)N[C@@H](CCCNC(=N)N)C(=O)N[C@@H](CCCNC(=N)N)C(=O)N[C@@H](C)C(=O)N[C@@H](Cc2ccccc2)C(=O)O)C(C)C)NC(=O)[C@H]([C@@H](C)O)NC1=O` [LfcinB], the dissociation constant Kd in test [1] amounted to 27.3 µM; in test [2] it was 0.37 µM.
Taken in the same sequence, the figures for `CC(C)C[C@H](NC(=O)[C@H](Cc1ccccc1)NC(=O)[C@@H]1CCCN1C(=O)[C@H](Cc1c[nH]c2ccccc12)NC(=O)[C@H](Cc1c[nH]c2ccccc12)NC(=O)[C@H](Cc1c[nH]c2ccccc12)NC(=O)[C@@H]1CCCN1C(=O)[C@H](Cc1ccccc1)NC(=O)[C@H](CCCNC(=N)N)NC(=O)[C@H](CCCNC(=N)N)NC(=O)[C@@H](N)C(C)C)C(=O)N[C@@H](CCCNC(=N)N)C(=O)N[C@@H](CCCNC(=N)N)C(N)=O` [Tritrp] were 11.2 µM and 2.42 µM.
As for “GLLRKGGEKIGEKLKKIGQKIKNFFQKLVPQPEQ [mCRAMP, mouse cathelicidin-related antimicrobial peptide, α-helical]”, the KD entry in test [1] was “no binding; also recorded: no interaction”; in test [2] it was “weak interaction”. Further, the “augmentation of Sak-dependent plasminogen activation” value in test [3] is given as “two-fold”.
Turning to melittin, the KD entry in test [1] and in test [2] was “weak interaction” in each case. Besides, the “N (stoichiometry)” value in test [2] (200–400 μM peptide into 8 μM SakΔN10, 20 mM HEPES pH 7.4, One Set of Sites model) is reported as ~1.

B1: Mouse cathelicidin-related antimicrobial peptide (peptide)
peptide: GLLRKGGEKIGEKLKKIGQKIKNFFQKLVPQPEQ
notes: Cathelicidin-related antimicrobial peptide (CRAMP), the C-terminal peptide of the mouse cathelicidin precursor; also called mCRAMP
In the case of B1, in test [4], the dissociation constant Kd was ≥ 100 µM. The “stoichiometry N” value in test [5] was ~1.

B2: Tritrp (C-terminally amidated tritrpticin) (peptide)
peptide: VRRFPWWWPFLRR-NH2
notes: Tritrpticin, a cathelicidin derived from porcine neutrophils; the amidated version was used
On to B2, for which, in test [6], the dissociation constant (Kd) was found to be 2.42 µM, the dH was -7.01 kcal/mol and the “stoichiometry N” value came out at 1.14. In test [7], the dissociation constant (Kd) was determined as 11.2 µM, the dH is -3.02 kcal/mol and the “stoichiometry N” value turned out to be 1.16.

B3: Bovine lactoferricin (peptide)
peptide: FKCRRWQWRMKKLGAPSITCVRRAF
modifications: disulfide 3-20
notes: Lactoferricin B, the peptide derived by intestinal proteolysis of bovine lactoferrin; also called LfcinB
Consider B3, for which, in test [6], the equilibrium dissociation constant (Kd) was determined as 0.37 µM, the dH is -30.1 kcal/mol and the “stoichiometry N” value came to 0.99. For the same molecule, in test [7], the Kd is 27.3 µM, the dH was -4.68 kcal/mol and the “stoichiometry N” value came out at 0.98. The Kd in test [8] is 27.2 µM.
